In paper PMC4072592:

Experiments:
[1] = molecular target: N-PYM-GFP (S2 cells) (Drosophila) (UniProt P82804); experiment: co-IP + cross-linking; as the native GFP-Trap IP from S2 cell extracts, but extracts cross-linked with 1 mM DSP for 1 h at 4°C before the IP; blots quantified by densitometry
[2] = molecular target: ΔC-PYM-GFP (S2 cells) (Drosophila); experiment: as above
[3] = molecular target: N-PYM-GFP (S2 cells) (Drosophila) (UniProt P82804); experiment: co-IP; GFP-Trap beads on cytoplasmic extracts of S2 cells expressing GFP or GFP-tagged FL-, ΔC- or N-PYM, native conditions; blots of Mago and Y14 quantified by densitometry, coIP efficiency as percent of the GFP enrichment

Chain of Y14-Mago heterodimer, endogenous in S2 cells (Q9V535 whole entry): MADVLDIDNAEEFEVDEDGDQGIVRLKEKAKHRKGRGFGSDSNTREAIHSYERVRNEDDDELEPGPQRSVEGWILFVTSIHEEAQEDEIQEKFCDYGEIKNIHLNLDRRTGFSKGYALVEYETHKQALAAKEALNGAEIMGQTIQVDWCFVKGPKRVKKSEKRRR
Chain of Y14-Mago heterodimer, endogenous in S2 cells (P49028 whole entry): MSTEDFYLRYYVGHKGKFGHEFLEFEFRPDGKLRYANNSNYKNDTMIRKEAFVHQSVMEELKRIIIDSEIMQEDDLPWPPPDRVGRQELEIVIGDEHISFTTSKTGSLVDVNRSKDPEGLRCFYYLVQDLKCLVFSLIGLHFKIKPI
Chain of N-PYM-GFP (S2 cells) (Drosophila) (P82804 whole entry): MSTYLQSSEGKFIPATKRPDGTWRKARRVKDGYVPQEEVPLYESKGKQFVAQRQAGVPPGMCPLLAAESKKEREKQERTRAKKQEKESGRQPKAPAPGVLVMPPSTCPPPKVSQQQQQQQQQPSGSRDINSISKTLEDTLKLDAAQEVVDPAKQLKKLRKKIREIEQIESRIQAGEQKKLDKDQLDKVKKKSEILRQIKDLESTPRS
Chain of ΔC-PYM-GFP (S2 cells) (Drosophila) (P82804 whole entry, stated change not applied): as the sequence (P82804 whole entry) above

coIP efficiency of Mago (percent of the GFP enrichment), DSP cross-linked [1]: 84.9%
coIP efficiency of Mago (percent of the GFP enrichment), DSP cross-linked [2]: 98.9%
fold increase of binding upon DSP treatment against native [2]: 3.6 fold
coIP efficiency of Mago (percent of the GFP enrichment), native [3]: 0.92%
Substance: Y14-Mago heterodimer, endogenous in S2 cells (from UniProt Q9V535 1-165; P49028 1-147) (complex)
